US20210162014A1 (CASE WESTERN RESERVE UNIVERSITY, published 2021)
Values joined by “and” are separate entries in the source; they are usually repeats but may differ in a detail not shown here. Identical values can stand only once. Bridges are numbered along the chain shown (N, C = ends). Where no end group is shown, it is not given here.

Experiments:
[1] = target: T1, A isoform of the insulin receptor (UniProt P06213-2 28-1370, limits assumed); assay: receptor affinity (method not described), relative to wild-type human insulin
T1 construct: Isoform A is the short isoform lacking exon 11; also called IR-A

[2] = target: B isoform of the insulin receptor (UniProt P06213); assay: as above
[3] = target: IGF Type I receptor (IGF-1R) (UniProt P08069); assay: receptor affinity (method not described), relative to wild-type insulin
[4] = target: T1, A isoform of the insulin receptor; assay: receptor-binding affinity assay (method not described; data not shown), relative to wild-type human insulin
[5] = substrate: B isoform of the insulin receptor (UniProt P06213); assay: receptor-binding affinity assay (method not described), relative to wild-type human insulin

affinity relative to wild-type human insulin (percent) [1] [%] | affinity relative to wild-type human insulin (percent) [2] [%] | fold reduction in affinity relative to wild-type insulin [3] [fold] | affinity relative to human insulin (percent) [4] [percent] | fold reduction in affinity relative to wild-type human insulin [5] | Molecule
10 to 150 | 10 to 150 | 10 | – | – | 59-mer SCI with C domain EEGSRRSR ('this SCI' of paragraph 30) (ligand)
– | – | – | 120 | 5 fold and 10 fold | 4SS 81-04 (57mer single-chain insulin analogue containing a fourth disulfide bridge between residues B4 and A10) (ligand, disulfide 19-56, 4-46, 42-47, 7-43, Single-chain insulin analogue, 57 residues, C domain EEGPRR; also called analogue 4SS 81-04) FVNCHLCGSHLVEALYLVCGERGFFYTDPTEEGPRRGIVEQCCHSCCSLEQLENYCN
